According to publication PMC9278964:
Like-named read-outs stand apart in the source and are kept apart here.

Assays:
[1] = target: biotinylated PD-L1 (Homo sapiens (assumed)) (UniProt Q9NZQ7); assay: ELISA
[2] = target: biotinylated PD-L1 (Homo sapiens (assumed)) (UniProt Q9NZQ7); assay: ELISA; remark: listed apart in the source

UniProt Q9NZQ7, sequence (Q9NZQ7 19-290): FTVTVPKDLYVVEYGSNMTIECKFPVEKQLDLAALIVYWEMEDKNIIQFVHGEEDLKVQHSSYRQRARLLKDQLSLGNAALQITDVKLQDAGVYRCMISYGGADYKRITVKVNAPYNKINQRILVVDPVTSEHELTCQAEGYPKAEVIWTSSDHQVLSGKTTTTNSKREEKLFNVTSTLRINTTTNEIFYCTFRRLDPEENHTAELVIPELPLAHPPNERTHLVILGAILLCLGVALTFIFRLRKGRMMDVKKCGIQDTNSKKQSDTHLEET

## avelumab (antibody)
[1]
  EC50: 0.015 nM
[2]
  EC50: 0.098 nM
